Molecular target: T1, TofR-His (also written His-TofR) (Burkholderia glumae BGR1?) (UniProt A1KWS3)
T1 sequence: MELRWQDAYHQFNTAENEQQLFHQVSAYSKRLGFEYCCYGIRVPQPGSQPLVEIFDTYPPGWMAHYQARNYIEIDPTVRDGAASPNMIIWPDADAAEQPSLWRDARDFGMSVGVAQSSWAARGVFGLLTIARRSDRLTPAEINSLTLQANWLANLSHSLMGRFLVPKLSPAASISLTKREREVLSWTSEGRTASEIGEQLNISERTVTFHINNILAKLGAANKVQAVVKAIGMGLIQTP
Experiment: EMSA
Settings: EMSA: 0.4 nM biotin-DNA, 10 mM Tris-HCl pH 7.5, 10 mM NaCl, 100 mM NaCl (both sic), 0.5 mM EDTA, 1 mM DTT, 5% glycerol, 50 ng/uL poly(dI-dC), 15 min …

“TGGTGTCCTCCAGATATGGGCTGCAGTCGATATGGGCTGCAGTATCGGATCTCGCTTATCATTACTCAAACGAAATTTTCTTGAGTTGAACATGAAAAATATTCAGGTTCACGCTGCTACTGAACGCCGCCATGAATCGCTCGCCGCTTGAGCTGCGCCATCTGCAGACCCTCACGGCGCT (double strand) [metE1 putative promoter region, 181 bp]” was tested, and the binding was “binds”.
